These results are taken from paper PMC2796168 (2009).

B1: CCL3/CCL5 chimera (ligand)
chain: ASLAADTPTACCFAYIARPLPRAHIKEYFYTSGKCSNPAVVFVTRKNRQVCANPEKKWVREYINSLEMS
B2: CCL18 (protein)
chain: AQVGTNKELCCLVYTSWQIPQKFIVDYSETSPQCPKPGVILLTKRGRQICADPNKKWVQKYISDLKLNA
modifications: disulfide (positions not given here)
B3: Δ4CCL3 (ligand)
chain: ADTPTACCFSYTSRQIPQNFIADYFETSSQCSKPGVIFLTKRSRQVCADPSEEWVQKYVSDLELSA
B4: CCL4 (protein)
chain: APMGSDPPTACCFSYTARKLPRNFVVDYYETSSLCSQPAVVFQTKRSKQVCADPSESWVQEYVYDLELN
modifications: disulfide (positions not given here)
B5: Evasin-1 WT (natural protein)
chain: EDDEDYGDLGGCPFLVAENKTGYPTIVACKQDCNGTTETAPNGTRCFSIGDEGLRRMTANLPYDCPLGQCSNGDCIPKETYEVCYRRNWRDKKN
B6: CCL3 (ligand)
chain: SLAADTPTACCFSYTSRQIPQNFIADYFETSSQCSKPGVIFLTKRSRQVCADPSEEWVQKYVSDLELSA

Test [1] concerns the target B5. Kind of test: SPR.
Test [2] deals with B5. Put plainly: SPR. (In general: SPR reads the build-up and loss of mass on a sensor chip optically.)
Test [3] addresses B6. Kind of test: SPR; immobilized CCL3.
Test [4] concerns the target B6. Kind of test: SPR; immobilized CCL3.
The target of test [5] is T1, Evasin-1 F14A W89A (Rhipicephalus sanguineus, UniProt P0C8E7 21-114, F14A | W89A). Put plainly: SPR; immobilized CCL3.
Test [6] has as its target T1, Evasin-1 F14A W89A. Put plainly: SPR; immobilized CCL3. The source holds these as a separate data set.

The molecule B1 returned a Kd in the test with Evasin-1 WT [1] of 1.02 nM. Also, in the test with Evasin-1 WT [2], the koff is 0.0038 s⁻¹.
For B2, in that order: 3.21 nM and 0.0111 s⁻¹.
The matching figures for B3: 0.17 nM and 0.00041 s⁻¹.
The matching figures for B4: 0.51 nM and 0.0022 s⁻¹.
As for B5, the Kd in the test with CCL3 [3] amounted to 8 nM. In the test with CCL3 [4], this molecule displayed an off-rate (koff) of 0.00276 s⁻¹.
On to B6, for which the results for the Kd with Evasin-1 WT [1] and with Evasin-1 F14A W89A [5] were 0.12 nM and 32.2 nM, respectively. Besides, the koff with Evasin-1 WT [2] came to 0.00243 s⁻¹; in the test with Evasin-1 F14A W89A [6] it was 0.0146 s⁻¹.

The term Kd denotes the constant that tells how readily two partners part at equilibrium. A lower Kd goes with higher affinity. For orientation: koff means the first-order rate constant of dissociation.
